Data as given in the supplement of paper PMC9112550, “Optimization of the antimicrobial peptide Bac7 by deep mutational scanning” (BMC Biology, 2022).

Test system: Escherichia coli TOP10
Assay: shrunken log2 fold change of peptide-encoding DNA abundance (4.5 h post-induction vs induction); higher = less antimicrobial activity (less host growth inhibition)
Details: time post-induction: 4.5 h; library: site-saturation at positions 5, 18, 19, 20
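Also: peptides expressed intracellularly from a pBAD plasmid library in pooled LB shake-flask culture, induced with 0.3% L-arabinose, DNA abundance read by NGS, three biological replicates, DESeq2 with apeglm shrinkage.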

Row | Sequence | shrunken log2 fold change
1 | RRIRCRPPRLPRPRPRPKWNPRP | -0.373
2 | RRIRRRPPRLPRPRPRPKHAPRP | 0.407
3 | RRIRRRPPRLPRPRPRPSKTPRP | -0.0865
4 | RRIRFRPPRLPRPRPRPCEMPRP | 0.0297
5 | RRIRERPPRLPRPRPRPFQWPRP | 0.0371
6 | RRIRCRPPRLPRPRPRPISEPRP | -0.0601
7 | RRIRYRPPRLPRPRPRPRNMPRP | -0.56
8 | RRIRYRPPRLPRPRPRPRSRPRP | 0.07
9 | RRIRGRPPRLPRPRPRPNPRPRP | 0.684
10 | RRIRFRPPRLPRPRPRPPTPPRP | 0.908
11 | RRIRVRPPRLPRPRPRPYKTPRP | 0.0577
12 | RRIRFRPPRLPRPRPRPSKAPRP | -0.367
13 | RRIRKRPPRLPRPRPRPTGQPRP | 0.84
14 | RRIRSRPPRLPRPRPRPKITPRP | -0.325
15 | RRIRERPPRLPRPRPRPNWRPRP | 0.194
16 | RRIRRRPPRLPRPRPRPCICPRP | -0.0935
17 | RRIRYRPPRLPRPRPRPQFNPRP | -0.755
18 | RRIRRRPPRLPRPRPRPFVEPRP | -0.142
19 | RRIRFRPPRLPRPRPRPWTMPRP | 0.0794
20 | RRIRNRPPRLPRPRPRPHPEPRP | 0.00649
21 | RRIRQRPPRLPRPRPRPPPAPRP | 0.804
22 | RRIRARPPRLPRPRPRPHWDPRP | 0.116
23 | RRIRGRPPRLPRPRPRPHEPPRP | 1.15
24 | RRIRKRPPRLPRPRPRPTLCPRP | 0.403
25 | RRIRRRPPRLPRPRPRPHWNPRP | -0.159

Row | Sequence | shrunken log2 fold change
26 | RRIRVRPPRLPRPRPRPVHWPRP | 0.133
27 | RRIRQRPPRLPRPRPRPDVAPRP | -0.116
28 | RRIRERPPRLPRPRPRPKQEPRP | -0.127
29 | RRIRRRPPRLPRPRPRPFVSPRP | -0.0868
30 | RRIRARPPRLPRPRPRPACGPRP | 0.582
31 | RRIRKRPPRLPRPRPRPINTPRP | -0.0237
32 | RRIRARPPRLPRPRPRPICMPRP | 0.055
33 | RRIRARPPRLPRPRPRPRFSPRP | 0.308
34 | RRIRYRPPRLPRPRPRPDNDPRP | -0.17
35 | RRIRQRPPRLPRPRPRPTPKPRP | 1.53
36 | RRIRWRPPRLPRPRPRPPCEPRP | 0.379
37 | RRIRRRPPRLPRPRPRPEPWPRP | 0.538
38 | RRIRHRPPRLPRPRPRPFSMPRP | -0.0138
39 | RRIRTRPPRLPRPRPRPLQPPRP | 0.161
40 | RRIRFRPPRLPRPRPRPDHPPRP | -0.593
41 | RRIRVRPPRLPRPRPRPCVNPRP | 0.125
42 | RRIRYRPPRLPRPRPRPNRMPRP | -0.22
43 | RRIRRRPPRLPRPRPRPPCEPRP | 0.195
44 | RRIRSRPPRLPRPRPRPQSWPRP | 0.722
45 | RRIRTRPPRLPRPRPRPCECPRP | 0.0538
46 | RRIRMRPPRLPRPRPRPCTYPRP | -0.00141
47 | RRIRHRPPRLPRPRPRPLELPRP | -0.0293
48 | RRIRRRPPRLPRPRPRPLVEPRP | 0.116
49 | RRIRHRPPRLPRPRPRPHASPRP | 0.00288
50 | RRIRDRPPRLPRPRPRPTFAPRP | 0.454

Row | Sequence | shrunken log2 fold change
51 | RRIRCRPPRLPRPRPRPQLPPRP | -0.104
52 | RRIRFRPPRLPRPRPRPQAWPRP | 0.15
53 | RRIRYRPPRLPRPRPRPVFQPRP | -0.503
54 | RRIRSRPPRLPRPRPRPSEFPRP | -0.306
55 | RRIRDRPPRLPRPRPRPAQFPRP | 0.442
56 | RRIRGRPPRLPRPRPRPKVFPRP | -0.00639
57 | RRIRRRPPRLPRPRPRPFPPPRP | 0.222
58 | RRIRVRPPRLPRPRPRPGEFPRP | 0.119
59 | RRIRTRPPRLPRPRPRPFKKPRP | -0.102
60 | RRIRFRPPRLPRPRPRPNGDPRP | -0.131
61 | RRIRDRPPRLPRPRPRPPLEPRP | 0.699
62 | RRIRQRPPRLPRPRPRPHLDPRP | -0.0359
63 | RRIRQRPPRLPRPRPRPMTNPRP | -0.0671
64 | RRIRIRPPRLPRPRPRPEHIPRP | -0.142
65 | RRIRWRPPRLPRPRPRPYAYPRP | 0.0461
66 | RRIRMRPPRLPRPRPRPYQSPRP | -0.118
67 | RRIRLRPPRLPRPRPRPFIEPRP | -0.372
68 | RRIRARPPRLPRPRPRPDPGPRP | 0.29
69 | RRIRQRPPRLPRPRPRPYNQPRP | -0.536
70 | RRIRFRPPRLPRPRPRPYEVPRP | -0.12
71 | RRIRYRPPRLPRPRPRPDWRPRP | 0.22
72 | RRIRHRPPRLPRPRPRPQWRPRP | 0.324
73 | RRIRRRPPRLPRPRPRPAKDPRP | 0.185
74 | RRIRLRPPRLPRPRPRPHSAPRP | -0.202
75 | RRIRNRPPRLPRPRPRPLANPRP | 0.142

Row | Sequence | shrunken log2 fold change
76 | RRIRTRPPRLPRPRPRPFSGPRP | -0.0204
77 | RRIRIRPPRLPRPRPRPTECPRP | 0.00877
78 | RRIRYRPPRLPRPRPRPLIYPRP | -1.24
79 | RRIRLRPPRLPRPRPRPVCKPRP | 0.000959
80 | RRIRPRPPRLPRPRPRPWHPPRP | -0.227
81 | RRIRLRPPRLPRPRPRPIMQPRP | -0.271
82 | RRIRLRPPRLPRPRPRPMCLPRP | -0.166
83 | RRIRRRPPRLPRPRPRPPFMPRP | 0.22
84 | RRIRYRPPRLPRPRPRPGCGPRP | -0.0402
85 | RRIRQRPPRLPRPRPRPTSQPRP | -0.0461
86 | RRIRLRPPRLPRPRPRPQESPRP | 0.133
87 | RRIRYRPPRLPRPRPRPRFPPRP | -0.448
88 | RRIRARPPRLPRPRPRPWDHPRP | -0.00959
89 | RRIRIRPPRLPRPRPRPVHTPRP | -0.4
90 | RRIRERPPRLPRPRPRPRDYPRP | -0.521
91 | RRIRIRPPRLPRPRPRPHPEPRP | -0.023
92 | RRIRLRPPRLPRPRPRPKDVPRP | -0.0185
93 | RRIRYRPPRLPRPRPRPAKCPRP | -0.153
94 | RRIRTRPPRLPRPRPRPAFPPRP | 0.0262
95 | RRIRSRPPRLPRPRPRPLMGPRP | -0.271
96 | RRIRARPPRLPRPRPRPNVVPRP | -0.0083
97 | RRIRLRPPRLPRPRPRPPKCPRP | 0.213
98 | RRIRWRPPRLPRPRPRPYQVPRP | -0.268
99 | RRIRVRPPRLPRPRPRPAQIPRP | -0.246
100 | RRIRHRPPRLPRPRPRPWLTPRP | -0.00695

Row | Sequence | shrunken log2 fold change
101 | RRIRSRPPRLPRPRPRPVIKPRP | -0.476
102 | RRIRQRPPRLPRPRPRPKQQPRP | -0.141
103 | RRIRHRPPRLPRPRPRPVVCPRP | -0.184
104 | RRIRIRPPRLPRPRPRPMQCPRP | -0.235
105 | RRIRVRPPRLPRPRPRPNKAPRP | 0.13
106 | RRIRMRPPRLPRPRPRPNCWPRP | 0.755
107 | RRIRMRPPRLPRPRPRPPHWPRP | 0.898
108 | RRIRWRPPRLPRPRPRPKWTPRP | -0.119
109 | RRIRCRPPRLPRPRPRPPFKPRP | 0.313
110 | RRIRWRPPRLPRPRPRPLNYPRP | -0.546
111 | RRIRMRPPRLPRPRPRPMANPRP | 0.356
112 | RRIRDRPPRLPRPRPRPPHEPRP | 0.00485
113 | RRIRHRPPRLPRPRPRPSPIPRP | -0.175
114 | RRIRVRPPRLPRPRPRPEPHPRP | -0.0157
115 | RRIRCRPPRLPRPRPRPVHCPRP | 0.0148
116 | RRIRTRPPRLPRPRPRPHNMPRP | -0.651
117 | RRIRNRPPRLPRPRPRPMRVPRP | 0.161
118 | RRIRPRPPRLPRPRPRPYMVPRP | -1.09
119 | RRIRDRPPRLPRPRPRPSGLPRP | 0.284
120 | RRIRPRPPRLPRPRPRPSENPRP | -0.0512
121 | RRIRIRPPRLPRPRPRPCFYPRP | -0.694
122 | RRIRRRPPRLPRPRPRPLVWPRP | 0.529
123 | RRIRDRPPRLPRPRPRPSCEPRP | 0.042
124 | RRIRERPPRLPRPRPRPIHDPRP | 0.0116
125 | RRIRSRPPRLPRPRPRPRCCPRP | -0.00537

Row | Sequence | shrunken log2 fold change
126 | RRIRHRPPRLPRPRPRPAPPPRP | 0.854
127 | RRIRFRPPRLPRPRPRPANCPRP | -0.211
128 | RRIRVRPPRLPRPRPRPPACPRP | 0.692
129 | RRIRPRPPRLPRPRPRPSRMPRP | -0.114
130 | RRIRKRPPRLPRPRPRPTWAPRP | 0.0687
131 | RRIRIRPPRLPRPRPRPWGWPRP | 0.0753
132 | RRIRDRPPRLPRPRPRPTRCPRP | 1.35
133 | RRIRTRPPRLPRPRPRPSTKPRP | -0.145
134 | RRIRPRPPRLPRPRPRPEEEPRP | 0.163
135 | RRIRARPPRLPRPRPRPLVEPRP | 0.666
136 | RRIRSRPPRLPRPRPRPQNCPRP | 0.0871
137 | RRIRTRPPRLPRPRPRPLTLPRP | -0.241
138 | RRIRSRPPRLPRPRPRPESSPRP | 0.00287
139 | RRIRKRPPRLPRPRPRPYSMPRP | -0.39
140 | RRIRVRPPRLPRPRPRPRIYPRP | -0.15
141 | RRIRLRPPRLPRPRPRPHFIPRP | -0.249
142 | RRIRERPPRLPRPRPRPHDCPRP | -0.715
143 | RRIRQRPPRLPRPRPRPKFDPRP | -0.0817
144 | RRIRNRPPRLPRPRPRPYFHPRP | -0.474
145 | RRIRKRPPRLPRPRPRPFPRPRP | 0.297
146 | RRIRFRPPRLPRPRPRPHGWPRP | 0.309
147 | RRIRERPPRLPRPRPRPFWKPRP | -0.125
148 | RRIRIRPPRLPRPRPRPASKPRP | -0.116
149 | RRIRTRPPRLPRPRPRPADRPRP | -0.108
150 | RRIRQRPPRLPRPRPRPTGMPRP | 0.475
